According to patent publication US20230303649A1 (published 2023):

T1: IL-2R on human primary T cells (human, UniProt P01589 22-272; P14784 27-551; P31785 23-369)
T1 sequence (looked up) 1: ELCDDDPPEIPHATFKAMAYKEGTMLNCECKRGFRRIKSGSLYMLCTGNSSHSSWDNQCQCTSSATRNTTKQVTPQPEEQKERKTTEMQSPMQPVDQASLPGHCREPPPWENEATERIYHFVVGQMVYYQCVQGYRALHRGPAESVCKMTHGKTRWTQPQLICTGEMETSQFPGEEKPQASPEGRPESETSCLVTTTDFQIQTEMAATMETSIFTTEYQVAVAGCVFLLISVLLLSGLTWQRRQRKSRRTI
T1 sequence (looked up) 2: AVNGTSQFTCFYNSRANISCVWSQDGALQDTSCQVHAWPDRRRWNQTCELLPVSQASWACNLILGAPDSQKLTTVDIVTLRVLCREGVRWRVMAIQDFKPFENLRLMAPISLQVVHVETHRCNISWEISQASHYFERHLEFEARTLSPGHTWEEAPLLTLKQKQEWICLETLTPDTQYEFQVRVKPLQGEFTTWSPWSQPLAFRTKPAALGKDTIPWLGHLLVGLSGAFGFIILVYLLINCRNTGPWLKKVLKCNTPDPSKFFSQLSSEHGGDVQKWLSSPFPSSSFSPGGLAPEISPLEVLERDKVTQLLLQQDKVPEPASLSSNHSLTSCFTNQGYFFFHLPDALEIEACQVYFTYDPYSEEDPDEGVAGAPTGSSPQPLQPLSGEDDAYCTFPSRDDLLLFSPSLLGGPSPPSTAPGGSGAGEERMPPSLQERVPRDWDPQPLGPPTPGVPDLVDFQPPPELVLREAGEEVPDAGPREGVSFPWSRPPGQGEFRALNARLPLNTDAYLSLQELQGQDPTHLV
T1 sequence (looked up) 3: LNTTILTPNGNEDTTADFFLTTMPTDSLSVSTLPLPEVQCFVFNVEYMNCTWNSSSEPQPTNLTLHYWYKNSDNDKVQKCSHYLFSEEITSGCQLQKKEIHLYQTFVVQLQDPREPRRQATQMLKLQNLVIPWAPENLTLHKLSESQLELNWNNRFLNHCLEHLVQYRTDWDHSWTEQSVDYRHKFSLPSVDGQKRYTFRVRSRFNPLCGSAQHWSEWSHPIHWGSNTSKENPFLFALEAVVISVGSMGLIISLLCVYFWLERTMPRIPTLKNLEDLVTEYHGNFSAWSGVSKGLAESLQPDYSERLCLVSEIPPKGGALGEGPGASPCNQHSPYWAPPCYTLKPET


Molecular target: T1, IL-2R on human primary T cells
Assay: cell-based or functional assay

| CD8 EC50 (nM), STAT5 phosphorylation [nM] | Treg EC50 (nM), STAT5 phosphorylation [nM] | CD4 conv EC50 (nM), STAT5 phosphorylation [nM] | CD8 naïve EC50 (nM), STAT5 phosphorylation [nM] | Binder |
| --- | --- | --- | --- | --- |
| 650 | 2.55 | – | – | SEQ ID NO 10 (ligand) APTSSSTKKTQLQLEHLLLDLQMILNGISNHKNPRLARMLTFKFYMPEKATELKHLQCLEEELKPLEEALRLAPSKNFHLRPRDLISDVNVIVLELKGSETTFMCEYADETATIVEFLNRWITFSTSIISTLT |
| 1000 | 2.53 | 4000 | 1000 | SEQ ID NO 33 (ligand) APTSSSTKKTQLQLEHLLLDLQMILNGINNYKNPKLTRMLTFKFYMPKKATELKHLQCLEEELKPLEEVLNLAPSKNFHLRPRDLISDINVIVLELKGSETTFMCEYADETATIVEFLNRWITFSQSIISTLT |
| 10000 | 17 | 7000 | 10000 | SEQ ID NO 31 (ligand) APTSSSTKKTQLQLEHLLLDLQMILNGINNYKNPKLTRMLTFKFYMPKKATELKHLQCLEEELKPLEEALNLAPSKNFHLRPRDLISDINVIVLELKGSETTFMCEYADETATIVEFLNRWITFSQSIISTLT |
| 10000 | 10.7 | 7000 | 10000 | SEQ ID NO 30 (ligand) APTSSSTKKTQLQLEHLLLDLQMILNGINNHKNPKLTRMLTFKFYMPKKATELKHLQCLEEELKPLEEALNLAPSKNFHLRPRDLISDINVIVLELKGSETTFMCEYADETATIVEFLNRWITFSQSIISTLT |
| 10000 | 94.9 | 7000 | 10000 | SEQ ID NO 32 (ligand) APTSSSTKKTQLQLEHLLLDLQMILNGINNYKNPKLTRMLTFKFYMPKKATELKHLQCLEEELKPLEEALNLAQSKNFHLRPRDLISDINVIVLELKGSETTFMCEYADETATIVEFLNRWITFSQSIISTLT |
